Test results published in the supplement of paper PMC7125110.
± gives the standard error. Variants at the floor of the assay were thinned out.

B1: glmS ribozyme (parent)
chain: AUAAAAGCGCCAGAACUACAGAAAUGUAGUUGACGAGGAGGAGGUUUAUCGAAUUUUCGGCGGAUGCCUCCAAA

What was measured:
Settings in all cases: with glucosamine-6-phosphate
glucosamine-6-phosphate [1] = variants of: B1; assay: self-cleavage kobs at 640 uM GlcN6P; higher = faster cleavage; RNA array
Summary of the method: (§1)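 Barcoded ribozyme variants on sequenced MiSeq chips were transcribed in situ by E. coli RNA polymerase and followed at 37 °C through a hybridised Cy3 probe. Glucosamine-6-phosphate at 40 μM to 10 mM in HEPES/KCl/Mg(OAc)2 buffer was flowed in, and tiles were imaged over ~14 h. Signals were normalised to baseline and to non-cleaving reference variants, and per-tile medians were fit to one- or two-exponential decays to give kobs. Weighted Michaelis–Menten fits across concentrations gave kcat and KM.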

glucosamine-6-phosphate [2] = variants of: B1; assay: self-cleavage kobs at 2500 uM GlcN6P; higher = faster cleavage; RNA array
Summary of the method: as §1

glucosamine-6-phosphate [3] = variants of: B1; assay: self-cleavage kobs at 10000 uM GlcN6P; higher = faster cleavage; RNA array
Summary of the method: as §1

C8G G32A U46C A53U G63C
self-cleavage kobs at 640 uM GlcN6P (glucosamine-6-phosphate [1]): < 1e-05 s⁻¹
self-cleavage kobs at 2500 uM GlcN6P (glucosamine-6-phosphate [2]): < 1e-05 s⁻¹

A52G U54A C68U
self-cleavage kobs at 640 uM GlcN6P (glucosamine-6-phosphate [1]): 6.73e-05 ± 2e-05 s⁻¹

A15U U30A C68G
self-cleavage kobs at 640 uM GlcN6P (glucosamine-6-phosphate [1]): 9.94e-05 ± 2.9e-05 s⁻¹

G7A C34A G43A G66U U69G
self-cleavage kobs at 640 uM GlcN6P (glucosamine-6-phosphate [1]): < 1e-05 s⁻¹
self-cleavage kobs at 2500 uM GlcN6P (glucosamine-6-phosphate [2]): < 1e-05 s⁻¹

G32C G35A A36U U47G U56G
self-cleavage kobs at 640 uM GlcN6P (glucosamine-6-phosphate [1]): < 1e-05 s⁻¹
self-cleavage kobs at 2500 uM GlcN6P (glucosamine-6-phosphate [2]): < 1e-05 s⁻¹

C16A C34G C68G
self-cleavage kobs at 640 uM GlcN6P (glucosamine-6-phosphate [1]): 0.000145 ± 4.7e-05 s⁻¹
self-cleavage kobs at 2500 uM GlcN6P (glucosamine-6-phosphate [2]): 0.000193 ± 6.5e-05 s⁻¹
self-cleavage kobs at 10000 uM GlcN6P (glucosamine-6-phosphate [3]): 4.24e-05 ± 2e-05 s⁻¹

U46C G51U A52G U55A C61G
self-cleavage kobs at 640 uM GlcN6P (glucosamine-6-phosphate [1]): < 1e-05 s⁻¹
self-cleavage kobs at 2500 uM GlcN6P (glucosamine-6-phosphate [2]): < 1e-05 s⁻¹

G26U G60A C68A
self-cleavage kobs at 640 uM GlcN6P (glucosamine-6-phosphate [1]): 9.37e-05 ± 4.6e-05 s⁻¹

A36C G51A C71G
self-cleavage kobs at 640 uM GlcN6P (glucosamine-6-phosphate [1]): 6.03e-05 ± 2.2e-05 s⁻¹

G7U G66A C67U
self-cleavage kobs at 640 uM GlcN6P (glucosamine-6-phosphate [1]): < 1e-05 s⁻¹
self-cleavage kobs at 2500 uM GlcN6P (glucosamine-6-phosphate [2]): < 1e-05 s⁻¹

A14U U30G U69G C71G
self-cleavage kobs at 640 uM GlcN6P (glucosamine-6-phosphate [1]): 0.000132 ± 4.4e-05 s⁻¹
self-cleavage kobs at 2500 uM GlcN6P (glucosamine-6-phosphate [2]): 0.00026 ± 5.9e-05 s⁻¹

A15C A36G U55A
self-cleavage kobs at 640 uM GlcN6P (glucosamine-6-phosphate [1]): < 1e-05 s⁻¹
self-cleavage kobs at 2500 uM GlcN6P (glucosamine-6-phosphate [2]): < 1e-05 s⁻¹

G13C A39C A42U
self-cleavage kobs at 640 uM GlcN6P (glucosamine-6-phosphate [1]): < 1e-05 s⁻¹

A14C G41A G62U C70G
self-cleavage kobs at 640 uM GlcN6P (glucosamine-6-phosphate [1]): < 1e-05 s⁻¹
self-cleavage kobs at 2500 uM GlcN6P (glucosamine-6-phosphate [2]): < 1e-05 s⁻¹

G51C U56A
self-cleavage kobs at 640 uM GlcN6P (glucosamine-6-phosphate [1]): < 1e-05 s⁻¹
self-cleavage kobs at 10000 uM GlcN6P (glucosamine-6-phosphate [3]): < 1e-05 s⁻¹

G13A A52U C70G
self-cleavage kobs at 640 uM GlcN6P (glucosamine-6-phosphate [1]): < 1e-05 s⁻¹

A14G G21U U31G G38U U57C
self-cleavage kobs at 640 uM GlcN6P (glucosamine-6-phosphate [1]): < 1e-05 s⁻¹
self-cleavage kobs at 2500 uM GlcN6P (glucosamine-6-phosphate [2]): < 1e-05 s⁻¹

G13U U55G U56C
self-cleavage kobs at 640 uM GlcN6P (glucosamine-6-phosphate [1]): 7.76e-05 ± 2.4e-05 s⁻¹
self-cleavage kobs at 2500 uM GlcN6P (glucosamine-6-phosphate [2]): 0.000112 ± 2.5e-05 s⁻¹

G38U G41A U46G U49G
self-cleavage kobs at 640 uM GlcN6P (glucosamine-6-phosphate [1]): < 1e-05 s⁻¹
self-cleavage kobs at 10000 uM GlcN6P (glucosamine-6-phosphate [3]): < 1e-05 s⁻¹

G40C G41U G43U
self-cleavage kobs at 640 uM GlcN6P (glucosamine-6-phosphate [1]): < 1e-05 s⁻¹
self-cleavage kobs at 2500 uM GlcN6P (glucosamine-6-phosphate [2]): < 1e-05 s⁻¹

G38C U55A A64C
self-cleavage kobs at 640 uM GlcN6P (glucosamine-6-phosphate [1]): < 1e-05 s⁻¹

A15U G38U G63U
self-cleavage kobs at 640 uM GlcN6P (glucosamine-6-phosphate [1]): < 1e-05 s⁻¹

A33C A52C
self-cleavage kobs at 640 uM GlcN6P (glucosamine-6-phosphate [1]): < 1e-05 s⁻¹
self-cleavage kobs at 2500 uM GlcN6P (glucosamine-6-phosphate [2]): < 1e-05 s⁻¹

A28C
self-cleavage kobs at 640 uM GlcN6P (glucosamine-6-phosphate [1]): 0.0103 ± 0.0026 s⁻¹
self-cleavage kobs at 10000 uM GlcN6P (glucosamine-6-phosphate [3]): 0.0679 ± 0.022 s⁻¹

C8A G44C U46A
self-cleavage kobs at 640 uM GlcN6P (glucosamine-6-phosphate [1]): < 1e-05 s⁻¹
self-cleavage kobs at 2500 uM GlcN6P (glucosamine-6-phosphate [2]): < 1e-05 s⁻¹

G7U C8G G38C
self-cleavage kobs at 640 uM GlcN6P (glucosamine-6-phosphate [1]): < 1e-05 s⁻¹

G29A C34U G60U
self-cleavage kobs at 640 uM GlcN6P (glucosamine-6-phosphate [1]): < 1e-05 s⁻¹

C50U C61A A64U C67G
self-cleavage kobs at 640 uM GlcN6P (glucosamine-6-phosphate [1]): 8.84e-05 ± 4.2e-05 s⁻¹
self-cleavage kobs at 2500 uM GlcN6P (glucosamine-6-phosphate [2]): 9.68e-05 ± 4.1e-05 s⁻¹

C10G A33C G37A G59U
self-cleavage kobs at 640 uM GlcN6P (glucosamine-6-phosphate [1]): < 1e-05 s⁻¹
self-cleavage kobs at 2500 uM GlcN6P (glucosamine-6-phosphate [2]): < 1e-05 s⁻¹

A14U U30G U54C
self-cleavage kobs at 640 uM GlcN6P (glucosamine-6-phosphate [1]): 0.000624 ± 0.00011 s⁻¹
self-cleavage kobs at 2500 uM GlcN6P (glucosamine-6-phosphate [2]): 0.00185 ± 0.00046 s⁻¹

G29C A33C C34G G38C A52G
self-cleavage kobs at 640 uM GlcN6P (glucosamine-6-phosphate [1]): < 1e-05 s⁻¹

A12G A48C A52U
self-cleavage kobs at 640 uM GlcN6P (glucosamine-6-phosphate [1]): < 1e-05 s⁻¹
self-cleavage kobs at 2500 uM GlcN6P (glucosamine-6-phosphate [2]): < 1e-05 s⁻¹
